Patent publication US6271012

Tests used:
[1] = molecular target: succinyl-L-alanyl-L-alanyl-L-prolyl-L-phenylalanyl-p-nitroanilide (not provided)
[2] = molecular target: casein (Hammerstein, Merck)
[3] = molecular target: casein (Hammerstein, Merck); remark: listed apart in the source

kcat/Km (Km in mM and kcat in 1/s) [1] | turnover number (kcat) measured on casein [2] | Specific activity relative to PB92 protease (%), ADU method [3] | Substance
102000 M⁻¹ s⁻¹ | 90 s⁻¹ |  | PB92 protease (serine protease of Bacillus nov. spec. PB92) (enzyme)
9000 M⁻¹ s⁻¹ |  | 50% | PB92 protease M216-oxidized (enzyme)
49000 M⁻¹ s⁻¹ |  | 95% | PB92 protease mutant E134K (enzyme)
 |  | 115% | PB92 protease mutant G116V, S126N, P127H, S128I (enzyme)
 |  | 69% | PB92 protease mutant G116V, S126Y, P127G, S128L (enzyme)
2000 M⁻¹ s⁻¹ |  | 27% | PB92 protease mutant M117L, M216Q (enzyme)
8000 M⁻¹ s⁻¹ |  | 36% | PB92 protease mutant M117L, M216S (enzyme)
 |  | 44% | PB92 protease mutant M169I, M216S (enzyme)
30000 M⁻¹ s⁻¹ |  | 36% | PB92 protease mutant M216C (enzyme)
3000 M⁻¹ s⁻¹ |  | 37% | PB92 protease mutant M216Q (enzyme)
5000 M⁻¹ s⁻¹ |  | 40% | PB92 protease mutant M216S (enzyme)
86000 M⁻¹ s⁻¹ |  | 100% | PB92 protease mutant N212D (enzyme)
 |  | 85% | PB92 protease mutant N212S (enzyme)
21000 M⁻¹ s⁻¹ |  | 48% | PB92 protease mutant S160C (enzyme)
12000 M⁻¹ s⁻¹ |  | 73% | PB92 protease mutant S160D (enzyme)
11000 M⁻¹ s⁻¹ |  | 47% | PB92 protease mutant S160K (enzyme)
 |  | 100% | PB92 protease mutant [A166D, M169I] (enzyme)
19000 M⁻¹ s⁻¹ |  |  | PB92 protease mutant [G116V, S126F, P127L, S128T] (enzyme)
13000 M⁻¹ s⁻¹ |  | 95% | PB92 protease mutant [G116V, S126G, P127Q, S128I] (enzyme)
 |  | 73% | PB92 protease mutant [G116V, S126H, P127Y] (enzyme)
65000 M⁻¹ s⁻¹ |  | 81% | PB92 protease mutant [G116V, S126L, P127N, S128V] (enzyme)
57000 M⁻¹ s⁻¹ |  | 62% | PB92 protease mutant [G116V, S126L, P127Q, S128A] (enzyme)
 |  | 81% | PB92 protease mutant [G116V, S126R, P127S, S128P] (enzyme)
86000 M⁻¹ s⁻¹ |  | 43% | PB92 protease mutant [G116V, S126V, P127E, S128K] (enzyme)
98000 M⁻¹ s⁻¹ |  | 69% | PB92 protease mutant [G116V, S126V, P127M] (enzyme)
180000 M⁻¹ s⁻¹ |  | 115% | PB92 protease mutant [S126M, P127A, S128G] (enzyme)
 |  | 12% | PB92 protease mutant [S160D, M216Q] (enzyme)
 |  | 17% | PB92 protease mutant [S160D, M216S] (enzyme)
18000 M⁻¹ s⁻¹ |  | 76% | PB92 protease mutant [S160G, N212D] (enzyme)
